Assay [1] addresses T1, Recombinant Human IL-13 (human, UniProt P35225 35-146, limits assumed).
T1 construct: bought reagent
Put plainly: SPR (Biacore). In a few lines:
(§1)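 Antibodies or DVD-Ig captured on anti-mouse IgG (Fcγ) CM5 surface; antigen injected at 10–200 nM in HBS-EP, pH 7.4, 25 °C, 25 µL/min. kon and koff from global 1:1 Langmuir fit; KD = koff/kon.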

The target of assay [2] is T2, Recombinant Human IL-17 (human, UniProt Q16552 20-155, limits assumed).
T2 construct: bought reagent; also called IL-17A
T2 sequence (looked up): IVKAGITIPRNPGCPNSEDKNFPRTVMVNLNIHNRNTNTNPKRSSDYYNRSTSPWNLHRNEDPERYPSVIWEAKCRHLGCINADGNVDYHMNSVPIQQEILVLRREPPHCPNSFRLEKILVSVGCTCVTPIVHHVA
Put plainly: SPR (Biacore). In a few lines:
as §1

Assay [3] has as its target T2, Recombinant Human IL-17. Put plainly: cell-based or functional assay.
For assay [4], the target named is T1, Recombinant Human IL-13. Put plainly: cell-based or functional assay.

T1 sequence (P35225 35-146 limits assumed): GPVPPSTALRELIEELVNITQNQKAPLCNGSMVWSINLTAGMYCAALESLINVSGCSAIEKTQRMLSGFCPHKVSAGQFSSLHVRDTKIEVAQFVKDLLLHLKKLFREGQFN

B1: DVD2190 (bispecific antibody)
VH: EVQLVQSGAEVKKPGASVKVSCKASGYTFTSYWMHWVRQAPGQGLEWIGNINPKGGSNIYNEKFQGRVTMTRDTSISTAYMELSRLRSDDTAVYYCARLDYFGDSFDLWGQGTTVTVSSASTKGPEVQLVQSGAEVKKPGSSVKVSCKASGGSFGGYGIGWVRQAPGQGLEWMGGITPFFGFADYAQKFQGRVTITADESTTTAYMELSGLTSDDTAVYYCARDPNEFWNGYYSTHDFDSWGQGTTVTVSS
VL: DIQMTQSPSSLSASVGDRVTITCRASQGIRNYLNWYQQKPGKAPKLLIYYASNLEVGVPSRFSGSGSGTDYTLTISSLQPEDFATYYCQQDNRFPYTFGGGTKVEIKRTVAAPEIVLTQSPDFQSVTPKEKVTITCRASQDIGSELHWYQQKPDQPPKLLIKYASHSTSGVPSRFSGSGSGTDFTLTINGLEAEDAGTYYCHQTDSLPYTFGPGTKVDIKR
notes: DVD-Ig; also called DVD2190H; DVD2190L
B1: in assay [1], the Kd was 0.021 nM, the koff is 5.7e-05 s⁻¹ and the kon came to 2.6e+06 M⁻¹ s⁻¹. In assay [2], the Kd turned out to be 0.038 nM, the koff was 3.4e-06 s⁻¹ and the kon turned out to be 89000 M⁻¹ s⁻¹. The “C-Terminal VD IL17 Neutralization Assay IC50” value in assay [3] was 0.061 nM. The “N-Terminal VD IL13 Neutralization Assay IC50” value in assay [4] stood at 0.087 nM.

B2: DVD2192 (bispecific antibody)
VH: EVQLVQSGAEVKKPGASVKVSCKASGYTFTSYWMHWVRQAPGQGLEWIGNINPKGGSNIYNEKFQGRVTMTRDTSISTAYMELSRLRSDDTAVYYCARLDYFGDSFDLWGQGTTVTVSSASTKGPEVQLVQSGAEVKKPGSSVKVSCKASGGSFGGYGIGWVRQAPGQGLEWMGGITPFFGFADYAQKFQGRVTITADESTTTAYMELSGLTSDDTAVYYCARDPNEFWNGYYSTHDFDSWGQGTTVTVSS
VL: DIQMTQSPSSLSASVGDRVTITCRASQGIRNYLNWYQQKPGKAPKLLIYYASNLEVGVPSRFSGSGSGTDYTLTISSLQPEDFATYYCQQDNRFPYTFGGGTKVEIKRTVAAPSVFIFPPEIVLTQSPDFQSVTPKEKVTITCRASQDIGSELHWYQQKPDQPPKLLIKYASHSTSGVPSRFSGSGSGTDFTLTINGLEAEDAGTYYCHQTDSLPYTFGPGTKVDIKR
notes: DVD-Ig; also called DVD2192H; DVD2192L
As to B2, in assay [1], the Kd is 0.035 nM, the koff worked out at 5.1e-05 s⁻¹ and the kon is 1.5e+06 M⁻¹ s⁻¹. Also, in assay [2], the Kd is < 0.0038 nM, the off-rate constant (koff) is < 1e-06 s⁻¹ and the kon was found to be 260000 M⁻¹ s⁻¹. Further, the “C-Terminal VD IL17 Neutralization Assay IC50” value in assay [3] came out at 0.015 nM. Also, the “N-Terminal VD IL13 Neutralization Assay IC50” value in assay [4] was found to be 0.056 nM.

B3: DVD2191 (bispecific antibody)
VH: EVQLVQSGAEVKKPGSSVKVSCKASGGSFGGYGIGWVRQAPGQGLEWMGGITPFFGFADYAQKFQGRVTITADESTTTAYMELSGLTSDDTAVYYCARDPNEFWNGYYSTHDFDSWGQGTTVTVSSASTKGPEVQLVQSGAEVKKPGASVKVSCKASGYTFTSYWMHWVRQAPGQGLEWIGNINPKGGSNIYNEKFQGRVTMTRDTSISTAYMELSRLRSDDTAVYYCARLDYFGDSFDLWGQGTTVTVSS
VL: EIVLTQSPDFQSVTPKEKVTITCRASQDIGSELHWYQQKPDQPPKLLIKYASHSTSGVPSRFSGSGSGTDFTLTINGLEAEDAGTYYCHQTDSLPYTFGPGTKVDIKRTVAAPDIQMTQSPSSLSASVGDRVTITCRASQGIRNYLNWYQQKPGKAPKLLIYYASNLEVGVPSRFSGSGSGTDYTLTISSLQPEDFATYYCQQDNRFPYTFGGGTKVEIKR
notes: DVD-Ig; also called DVD2191H; DVD2191L
With B3, in assay [1], the Kd came out at 0.17 nM, the koff turned out to be 4.4e-05 s⁻¹ and the kon was 260000 M⁻¹ s⁻¹. Moreover, in assay [2], the Kd was 0.0046 nM, the koff turned out to be 1.2e-05 s⁻¹ and the kon amounted to 2.5e+06 M⁻¹ s⁻¹. Moreover, the “N-Terminal VD IL17 Neutralization Assay IC50” value in assay [3] turned out to be 0.013 nM. For the same molecule, in assay [4], the “C-Terminal VD IL13 Neutralization Assay IC50” value was determined as 0.165 nM.

B4: DVD2189 (bispecific antibody)
VH: EVQLVQSGAEVKKPGSSVKVSCKASGYTFTDYEIHWVRQAPGQGLEWMGVNDPESGGTFYNQKFDGRVTLTADESTSTAYMELSSLRSEDTAVYYCTRYSKWDSFDGMDYWGQGTTVTVSSASTKGPSVFPLAPEVQLVQSGAEVKKPGASVKVSCKASGYTFTSYWMHWVRQAPGQGLEWIGNINPKGGSNIYNEKFQGRVTMTRDTSISTAYMELSRLRSDDTAVYYCARLDYFGDSFDLWGQGTTVTVSS
VL: DIQMTQSPSSLSASVGDRVTITCRASSGIISYIDWFQQKPGKAPKRLIYATFDLASGVPSRFSGSGSGTDYTLTISSLQPEDFATYYCRQVGSYPETFGQGTKLEIKRTVAAPDIQMTQSPSSLSASVGDRVTITCRASQGIRNYLNWYQQKPGKAPKLLIYYASNLEVGVPSRFSGSGSGTDYTLTISSLQPEDFATYYCQQDNRFPYTFGGGTKVEIKR
notes: DVD-Ig; also called DVD2189H; DVD2189L
In the case of B4, in assay [1], the Kd came out at 0.094 nM, the koff was 3.9e-05 s⁻¹ and the kon came to 410000 M⁻¹ s⁻¹. For the same molecule, in assay [2], the Kd is < 0.0004 nM, the koff was < 1e-06 s⁻¹ and the kon is 2.5e+06 M⁻¹ s⁻¹. In addition, in assay [3], the “N-Terminal VD IL17 Neutralization Assay IC50” value was 0.0017 nM. Moreover, the “C-Terminal VD IL13 Neutralization Assay IC50” value in assay [4] stood at 0.172 nM.

These data come from patent US20130236458A1 (AbbVie / Abbott, published 2013).
